Assay results reported in US12180473B2, “Chimeric RNA-driven genomic rearrangement in mammalian cells” (priority 2018, dated 2024).
Entries after “also recorded” stand apart in the source; their conditions may differ. Where two headings read alike, the source gives them in different places.

Tests used:
[1] = tested on: BCR-RANGAP1 fusion; assay: Nested RT-PCR of induced BCR-RANGAP1 fusion transcript in 293T cells; type: cell-based, human
Source text: FIGS. 40A-40C. RNA-mediated intra-chromosomal BCR-RANGAP1 fusion in 293T cells by designed chimeric RNA. FIG. 40A. The design of chimeric RNA is based on the three-way junction that could be formed between genomic DNA (in the stem) and chimeric RNA (perpendicular and below the stem). The three-way junction consists of an RNA/DNA hybrid and a genomic DNA stem between the parental genes (BCR and RANGAP1). The sense genomic strand of BCR gene is on the positive strand of chromosome 22 while that of RANGAP1 is on the negative strand of chromosome 22, separated by 18 Mb. Short lines in gray regions represent base pairings. FIG. 40B. […] This chimeric RNA target intron regions and has GC content of 48.4%. The fusion RNA transcribed from the induced fusion gene contains an annotated splice junction. FIG. 40B discloses the BCR targeting sequence as SEQ ID NO: 239, the RANGAP1 targeting sequence as SEQ ID NO: 240, and the chimeric sequence as SEQ ID NO: 241. FIG. 40C. Intra-chromosomal BCR-RANGAP1 fusion transcript (arrow) induced by sequence-specific chimeric RNA in 293T cells without additional hormone or other stimuli. 293T cells were transfected with chimeric RNA expression plasmid. Total RNA was then harvested at day 3. Nested RT-PCR using specific primer pairs were used to detect the induced fusion transcript. […]

[2] = tested on: BCR-KCNQ2 fusion; assay: Nested RT-PCR of induced BCR-KCNQ2 fusion transcript in HL-60 cells; type: cell-based, human
Source text: FIGS. 41A-41D. RNA-mediated inter-chromosomal BCR-KCNQ2 fusion in HL-60 cells by designed chimeric RNA. FIG. 41A. The design of chimeric RNA is based on the three-way junction that could be formed between genomic DNA (in the stem) and chimeric RNA (perpendicular and below the stem). The three-way junction consists of an RNA/DNA hybrid and a genomic DNA stem (black) between the parental genes (BCR and KCNQ2). The sense genomic strand of BCR gene is on the positive strand of chromosome 22 while that of KCNQ2 is on the negative strand of chromosome 20. Short lines in gray regions represent base pairings. FIG. 41B. […] This chimeric RNA target intron regions and has GC content of 55.4%. The fusion RNA transcribed from the induced fusion gene contains an annotated splice junction. In this case, two different fusion RNAs were confirmed based on the results derived from the Sanger sequencing data. FIG. 41B discloses the BCR targeting sequence as SEQ ID NO: 242, the KCNQ2 targeting sequence as SEQ ID NO: 243, and the chimeric sequence as SEQ ID NO: 244. FIG. 41C. Two BCR-KCNQ2 fusion transcript variants were induced in HL-60 cells by chimeric RNA targeting BCR and KCNQ2 genes in the genome without hormone or other stimuli. FIG. 41D. Schematic of induced BCR-KCNQ2 fusion transcripts derived from the Sanger sequencing data. […]

[3] = tested on: TMPRSS2-ETV1 fusion gene; assay: FISH with 3D image reconstruction, co-localization of TMPRSS2 and ETV1 in enriched LNCaP population; type: cell-based, human; settings: 30 out of 3301 cells
Method: Enriched population carrying TMPRRS2-ETV1 fusion events were first grown on 18 mm round #1 coverglass in a 12-well cell culture plate at the initial density of 200-400 k/well. Cells were then fixed with 4% (vol./vol.) formaldehyde followed by denaturation of DNA with 0.1 N HCl for 5 min and with 70% formamide at 85° C. for 7 min. Hybridization of target DNA with probes were done at 37° C. for 16 hr in a humidified chamber. Cells were then washed, stained with DAPI and imaged with microscope. FISH probes for TMPRSS2 (RP11-35C4, red) and ETV1 (RP11-769K2, green) were purchased from Empire Genomics.

[4] = tested on: TMPRSS2-ETV1 fusion; assay: RT-PCR detection of induced TMPRSS2-ETV1 fusion transcript in LNCaP cells; type: cell-based, human; settings: for TMPRSS2-ETV1 fusion, specificity of input RNA: three-round nested PCR (FIG. 4C)
Method: • 1st Round: Top down PCR with TMPRSS2 ex-1 F1 and ETV1 ex-6 R1 • Denaturation 94° C., 30 sec • Annealing * , 45 sec • Extension 72° C., 60 sec
The Denaturation, Annealing and Extension steps were performed 2 cycles. • 2 cycles at each temperature: 62° C., 61° C., 60° C. . . .
Long Range PCR for Detecting Genomic DNA Fusion Junction

[5] = tested on: TMPRSS2-ETV1 genomic breakpoints; assay: Genomic PCR of TMPRSS2-ETV1 genomic breakpoints in enriched LNCaP population; type: cell-based, human; settings: enriched vs untransfected LNCaP cells
Method: (§1) Nested long-range PCRs according to the manufacturer's protocols using LA PCR kit (Takara, #RR002M). 200 ng of genomic DNA was used in each reaction and PCR was performed with annealing and extension at 68° C. for 20 minutes. 1 μl from the above reaction (1st round PCR) was used as template for the 2nd round PCR.

[6] = tested on: TMPRSS2-ERG fusion; assay: RT-PCR detection of induced endogenous TMPRSS2-ERG fusion transcript in LNCaP cells expressing input RNA; settings: for TMPRSS2-ERG fusion, specificity of input RNA: three-round nested PCR (FIG. 4C); for induction of endogenous TMPRSS2-ERG fusion transcript (RT-PCR): LNCaP cells transfected with input RNA plasmid, DHT for 3 days
Method: LNCaP cells were cultured in this special medium for 24 hrs prior to plasmid transfection.
Transfection was performed using Turbofect transfection reagent (Thermo Scientific, #R0531) according to manufacturer's protocol. Briefly, 1 μg of a particular plasmid was first diluted in 100 μl of the serum-free DMEM followed by immediate mixing by pipetting. 4 μl of the transfection reagent was then added to the diluted DNA followed by mixing and incubation for 20 min. The DNA/transfection reagent mixture was then added drop wise to a well containing LNCaP cells in 1 ml medium.
For treating cultured cells, concentrated DHT stock was diluted as 10× working solutions (for example, for 0.9 μM final concentration, 10× is prepared as 9.0 μM) with the appropriate complete culture medium and used immediately. […] Six hrs post transfection, 111 μl of fresh 10× DHT working solutions was added to each well of 12-wells plate containing 1 ml medium and transfected cells.
Briefly, cells were suspended in 200 μl of PBS buffer and were then lysed with 400 μl of lysis buffer. The sample was then passed through the filter assembly resulting in the binding of the nucleic acids to the filter. The filter containing nucleic acids was then incubated with DNase I dissolved in DNase incubation buffer to degrade genomic and plasmid DNAs. The column was then rinsed with wash buffer and total RNA then eluted in a new tube for further analysis.
After the addition of dNTPs, the mixture was denatured at 65° C. for 5 minutes. This was followed by the addition of a master-mix containing 1× superscript buffer, 10 mM DTT, 5 mM Magnesium chloride, RNaseOUT and Superscript III reverse transcriptase. Reactions were carried out at 50° C. for 50 minutes and then terminated by incubation at 85° C. for 5 minutes. cDNA was then treated with RNase-H for 20 minutes at 37° C. to degrade RNA in DNA/RNA hybrid. 1 μl of cDNA was used as template for each subsequent PCR reaction.
The Denaturation, Annealing and Extension steps were performed 32 cycles for induced fusion RNA and 27 cycles for input RNA.

[7] = RT-PCR detection of input RNA in propagated/enriched LNCaP population; type: cell-based, human; settings: enriched LNCaP population
Method: FIG. 18. Procedure used to propagate and enrich the induced LNCaP population for 52 days in the absence of DHT. LNCaP cells were transfected on day 1 with antisense-5 and incubated for 3 days with DHT. Cells were then divided into sub-populations. Half of the cells from each sub-population were harvested for RT-PCR assays to detect the induced fusion transcript whereas the other half was used to propagate the population. […] The process was continued for 52 days.

[8] = tested on: ERG mRNA
[9] = tested on: TMPRSS2-ERG genomic breakpoint; type: cell-based, human
Method: as §1
For the genomic breakpoint identified in this manuscript, 1st round long range PCR was done using primers TMPRSS2 genomic bk-F1 and ERG genomic bk-R1 shown in primer list below. 1 μl from the above reaction (1st round PCR) was used as template for the 2nd round PCR using inner primers TMPRSS2 genomic bk-F2 and ERG genomic bk-R2.

[10] = tested on: TMPRSS2-ERG fusion
[11] = tested on: JAZF1-SUZ12 fusion; assay: Nested RT-PCR of induced JAZF1-SUZ12 fusion transcript in 293T cells; type: cell-based, human
Source text: FIGS. 39A-39D. RNA-mediated inter-chromosomal JAZF1-SUZ12 fusion in 293T cells. FIG. 39A. The design of chimeric RNA is based on the three-way junction that could be formed between genomic DNA (in the stem) and chimeric RNA (perpendicular and below the stem). The three-way junction comprises an RNA/DNA hybrid and a genomic DNA stem between the parental genes (JAZF1 and SUZ12). The sense genomic strand of JAZF1 gene is on the negative strand of chromosome 7 while that of SUZ12 is on the positive strand of chromosome 17. Short vertical lines in gray regions between the chromosome and the chimeric RNA represent base pairings. FIG. 39B. […] This chimeric RNA target intron regions and has GC content of 27%. The fusion RNA transcribed from the induced fusion gene contains an annotated splice junction. In this particular case, two different fusion RNAs were confirmed based on the results derived from the Sanger sequencing data. FIG. 39B discloses the JAZF1 targeting sequence as SEQ ID NO: 236, the SUZ12 targeting sequence as SEQ ID NO: 237, and the chimeric sequence as SEQ ID NO: 238. FIG. 39C. Example of inter-chromosomal JAZF1-SUZ12 fusion transcript (arrow) induced by sequence-specific chimeric RNAs in 293T cells without additional hormone or other stimuli. 293T cells were transfected with chimeric RNA expression plasmid. Total RNA was then harvested at day 3. […]

[12] = 293T, day 3, without hormone or other stimuli

B1: S1-7: chimeric RNA, BCR-RANGAP1, GC content 48.4% (nucleic acid)
chain: AGAATATGTGTAATTGTGTTACCAGCCTTCACTGTTCTGACAGCTCCAGTAGCTGGGGGAGACC
modifications: chimeric RNA, chemistry not given here
induction of BCR-RANGAP1 fusion [1, 12]: induce BCR-RANGAP1 fusion
Cell line(s) identified ([1]; fusion gene partners BCR-RANGAP1): 293T

B2: S4 30-2: chimeric RNA, BCR-KCNQ2, GC content 55.4% (nucleic acid)
chain: GAGATCGAGACCATCCTGGCTAACGCAGTGAAACCCCGTCTCTACATTACCAGCCTTCACTGTTCTGACAGCTCCAGTAGCTGGGGGAGACC
modifications: listed as DNA, further chemistry not given here
induction of BCR-KCNQ2 fusion ([2]; HL-60, nucleofection, day 7): induce BCR-KCNQ2 fusion
Cell line(s) identified ([2]; fusion gene partners BCR-KCNQ2, HL-60): HL-60

B3: Antisense-TMPRSS2-ETV1-A1: input RNA, SEQ ID NO: 34; antisense RNA designed to target stem TMPRSS2-ETV1-A (nucleic acid)
antisense: TGTGCTCGCTTCGGCAGCACATATACTAACATTGGAACGATCCTGCAGTGCCGCATTATGTAAATCGTTCCAAGTTAAAGTCTTAGTTAGATTCAGTAGACTAGGAGCCAGCTTTGGGGACCCCGGGGGACTCTCTTCCACCAACTGG
cells positive for TMPRSS2-ETV1 fusion gene by co-localized FISH signals [3]: Approximately 0.9%
TMPRSS2-ETV1 fusion, specificity of input RNA ([4]; LNCaP): induced TMPRSS2-ETV1 fusion
induction of TMPRSS2-ETV1 fusion transcript (RT-PCR) ([4]; LNCaP, two-round nested PCR): clear induction of the TMPRSS2-ETV1 fusion transcript; also recorded: led to induced fusion transcript
persistence of induced TMPRSS2-ETV1 fusion transcript ([4]; enriched LNCaP population post initial treatment): ≥ 47 days
Cell line(s) identified ([4]; fusion gene partners TMPRSS2-ETV1): LNCaP
genomic TMPRSS2-ETV1 fusion bands x, y, z [5]: present only in the induced and enriched LNCaP population
TMPRSS2-ERG fusion, specificity of input RNA ([6]; LNCaP): not TMPRSS2-ERG fusion
time after transfection until which transiently expressed input RNA is present (RT-PCR) [7]: < 47 days

B4: Antisense-5: input RNA, SEQ ID NO: 8 (nucleic acid)
antisense: TGTGCTCGCTTCGGCAGCACATATACTAACATTGGAACGATCCTGCAGCTTGAGCCATTCACCTGGCTAGGGTTACATTCCATATTGATGGTGACCCTGGCTGGGGGTTGAGACAGCCAATCCGCCGCTCACCTGCCGCGCTCCAGGCGGCGCTCCCCGCCCCTCGCCCTCCGCCAGACAGGAGTGAGAGATGGAAGCTCGCGCCTACTC
endogenous ERG mRNA (RT-PCR) [8]: not detected
endogenous ERG mRNA (three-rounds of nested RT-PCR) [8]: not detected
TMPRSS2-ETV1 fusion, specificity of input RNA ([4]; LNCaP): not TMPRSS2-ETV1 fusion
genomic TMPRSS2-ERG fusion band (~862 bp, primer pair A/D) [9]: present only in the enriched LNCaP population
Cell line(s) identified [10]: PNT1A
induction of endogenous TMPRSS2-ERG fusion transcript (RT-PCR) [6]: clear induction
induction of endogenous TMPRSS2-ERG fusion transcript (RT-PCR) ([6]; listed as antisense-5): peaked; also recorded: sufficient to induce TMPRSS2-ERG gene fusion
lowest DHT concentration at which fusion induction occurred ([6]; LNCaP, 3 days, three-rounds of nested PCR): 20 nM
TMPRSS2-ERG fusion, specificity of input RNA ([6]; LNCaP): induced TMPRSS2-ERG fusion
persistence of induced TMPRSS2-ERG fusion transcript ([6]; enriched LNCaP population propagated in absence of DHT and input RNA): ≥ 52 days
Cell line(s) identified ([6]; fusion gene partners TMPRSS2-ERG, LNCaP): LNCaP,
induction of TMPRSS2-ERG fusion after transfection of digested plasmid fragments ([6]; plasmid cut SacII/KpnI or SacII/PstI): induced only when the U6 promoter was attached to antisense-5 sequence
time after transfection until which transiently expressed input RNA is present (RT-PCR) [7]: ≤ 17 days

B5: JS-8: chimeric RNA, JAZF1-SUZ12, GC content 27% (nucleic acid)
chain: TCAACAAAAGAACTATTGATTGATGCCAAACAAGATGAAAATTTCACTTTGCGTATTAGTTACCAAAGGTTTATTTATGTTTCTGTAATGCATATTTATA
modifications: chimeric RNA, chemistry not given here
induction of JAZF1-SUZ12 fusion [11, 12]: induce JAZF1-SUZ12 fusion
Cell line(s) identified ([11]; fusion gene partners JAZF1-SUZ12): 293T
